Data taken from patent publication US20090280128A1 (SBI BIOTECH, published 2009).
Changes are numbered by the printed parent chain.

Legend:
[1] = biological target: ILT3 (on 293T cells, from pcDNA4.1-ILT3) (Homo sapiens (Human), UniProt Q8NHJ6 22-448); experiment: flow cytometry on 293T cells co-transfected with C-FLAG ILT1, ILT2, ILT3 and Myc-FcRγ
[2] = biological target: T1, C-FLAG ILT1 (human ILT1 with a FLAG tag at the C terminus, on 293T cells) (human, UniProt Q8N149 24-483); experiment: as above
T1 construct: Cloned from a human tonsil cDNA library; also called pME18X-C-FLAGILT1; pME18X-C-FLAG ILT1

[3] = biological target: ILT2 (on 293T cells, from pcDNA4.1-ILT2) (Homo sapiens (Human), UniProt Q8NHL6 24-650); experiment: as above
[4] = biological target: T2, C-FLAG ILT7 (human ILT7 with FLAG tag at the C terminus, co-expressed with Myc-FcRγ) (human, UniProt P59901 17-499); experiment: cell-based or functional assay
[5] = biological target: T3, human ILT7 expressed on human IPCs (interferon producing cells, BDCA-2 positive cells of peripheral blood … (human, UniProt P59901 17-499)); experiment: flow cytometry, multiple staining of human peripheral blood lymphocytes (Lineage-1, CD123, BDCA-2)
T3 construct: Natural protein on primary human cells; GenBank NM-012276 is printed for the cDNA; also called immunoglobulin-like transcript-7; ILT7 molecules expressed on human IPCs

[6] = biological target: T4, N-FLAG ILT7 (human ILT7 with FLAG tag attached to the N terminus, co-expressed with Myc-FcRγ on 293T cells) (human, UniProt P59901 17-499); experiment: flow cytometry on 293T cells co-expressing N-FLAG ILT7 and Myc-FcRγ
T4 construct: also called pME18X-N-FLAG ILT7; ILT7 molecules with a FLAG tag

[7] = biological target: T3, human ILT7 expressed on human IPCs …; experiment: flow cytometry on human lymphocytes, with anti-CD123 antibody
[8] = biological target: T2, C-FLAG ILT7 (human ILT7 with FLAG tag …); experiment: flow cytometry of hybridoma supernatant on 293T cells transfected with C-FLAG ILT7 and Myc-FcRγ
[9] = biological target: T3, human ILT7 expressed on human IPCs …; experiment: flow cytometry as in B of Example 2 (human peripheral blood lymphocytes, BDCA-2 positive cells)

T3 sequence (P59901 other isoform, or with tags, fused parts or gaps): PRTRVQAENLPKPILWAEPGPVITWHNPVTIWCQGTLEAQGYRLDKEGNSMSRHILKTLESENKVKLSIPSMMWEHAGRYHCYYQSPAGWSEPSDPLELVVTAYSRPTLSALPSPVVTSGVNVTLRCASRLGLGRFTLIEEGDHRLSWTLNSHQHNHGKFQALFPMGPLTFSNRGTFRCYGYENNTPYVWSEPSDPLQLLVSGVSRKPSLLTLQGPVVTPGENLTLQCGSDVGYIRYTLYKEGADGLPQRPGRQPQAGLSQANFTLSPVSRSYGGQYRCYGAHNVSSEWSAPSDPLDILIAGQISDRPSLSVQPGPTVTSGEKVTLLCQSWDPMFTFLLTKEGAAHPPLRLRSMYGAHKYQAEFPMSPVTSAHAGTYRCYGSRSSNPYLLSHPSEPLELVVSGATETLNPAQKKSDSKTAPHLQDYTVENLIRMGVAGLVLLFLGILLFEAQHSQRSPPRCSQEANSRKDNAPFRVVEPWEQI
T2 sequence (P59901 other isoform, or with tags, fused parts or gaps): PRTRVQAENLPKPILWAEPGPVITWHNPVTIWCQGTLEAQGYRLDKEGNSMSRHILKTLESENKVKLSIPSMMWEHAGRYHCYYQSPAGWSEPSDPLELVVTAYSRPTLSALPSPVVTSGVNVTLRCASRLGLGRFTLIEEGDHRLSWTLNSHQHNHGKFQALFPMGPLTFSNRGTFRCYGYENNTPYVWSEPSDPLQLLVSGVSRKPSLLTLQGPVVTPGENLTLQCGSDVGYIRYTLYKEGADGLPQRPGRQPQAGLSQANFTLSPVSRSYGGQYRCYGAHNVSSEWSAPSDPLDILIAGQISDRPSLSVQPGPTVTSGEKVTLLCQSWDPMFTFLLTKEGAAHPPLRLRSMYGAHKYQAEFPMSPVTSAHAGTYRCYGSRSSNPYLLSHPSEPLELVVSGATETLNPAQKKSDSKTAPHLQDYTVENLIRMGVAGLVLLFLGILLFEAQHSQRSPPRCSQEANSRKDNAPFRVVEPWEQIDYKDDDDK
ILT3 (on 293T cells, from pcDNA4.1-ILT3), sequence (Q8NHJ6 22-448 D223G/Q414R limits assumed): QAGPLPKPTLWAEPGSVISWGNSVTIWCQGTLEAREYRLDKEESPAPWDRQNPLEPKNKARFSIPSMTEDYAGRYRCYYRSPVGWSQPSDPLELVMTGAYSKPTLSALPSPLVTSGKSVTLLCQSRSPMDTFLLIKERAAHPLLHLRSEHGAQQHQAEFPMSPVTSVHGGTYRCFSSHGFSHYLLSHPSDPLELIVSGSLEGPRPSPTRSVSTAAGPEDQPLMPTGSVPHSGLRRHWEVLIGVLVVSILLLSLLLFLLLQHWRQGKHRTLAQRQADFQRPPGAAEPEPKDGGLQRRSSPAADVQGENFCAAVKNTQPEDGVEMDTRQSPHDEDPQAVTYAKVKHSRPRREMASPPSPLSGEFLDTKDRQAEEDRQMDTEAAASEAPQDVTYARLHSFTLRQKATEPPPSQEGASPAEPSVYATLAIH
ILT2 (on 293T cells, from pcDNA4.1-ILT2), sequence (Q8NHL6 other isoform, or with tags, fused parts or gaps limits assumed): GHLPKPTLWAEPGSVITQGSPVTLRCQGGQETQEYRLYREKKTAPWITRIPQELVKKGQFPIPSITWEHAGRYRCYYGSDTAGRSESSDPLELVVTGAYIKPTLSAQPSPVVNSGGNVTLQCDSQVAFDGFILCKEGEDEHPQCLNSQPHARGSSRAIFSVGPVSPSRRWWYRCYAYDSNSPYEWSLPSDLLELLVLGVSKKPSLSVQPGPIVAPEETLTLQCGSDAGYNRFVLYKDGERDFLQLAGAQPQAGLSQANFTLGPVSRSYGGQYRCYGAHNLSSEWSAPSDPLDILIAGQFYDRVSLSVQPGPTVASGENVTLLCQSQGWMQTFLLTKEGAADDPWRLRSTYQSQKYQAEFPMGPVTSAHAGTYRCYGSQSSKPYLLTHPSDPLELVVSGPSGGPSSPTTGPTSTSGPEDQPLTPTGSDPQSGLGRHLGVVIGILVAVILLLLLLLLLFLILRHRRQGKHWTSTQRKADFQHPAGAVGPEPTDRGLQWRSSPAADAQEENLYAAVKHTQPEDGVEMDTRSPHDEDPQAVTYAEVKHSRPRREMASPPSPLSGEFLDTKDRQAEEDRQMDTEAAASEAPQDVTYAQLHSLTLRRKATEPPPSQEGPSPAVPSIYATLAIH
T1 sequence (Q8N149 other isoform, or with tags, fused parts or gaps limits assumed): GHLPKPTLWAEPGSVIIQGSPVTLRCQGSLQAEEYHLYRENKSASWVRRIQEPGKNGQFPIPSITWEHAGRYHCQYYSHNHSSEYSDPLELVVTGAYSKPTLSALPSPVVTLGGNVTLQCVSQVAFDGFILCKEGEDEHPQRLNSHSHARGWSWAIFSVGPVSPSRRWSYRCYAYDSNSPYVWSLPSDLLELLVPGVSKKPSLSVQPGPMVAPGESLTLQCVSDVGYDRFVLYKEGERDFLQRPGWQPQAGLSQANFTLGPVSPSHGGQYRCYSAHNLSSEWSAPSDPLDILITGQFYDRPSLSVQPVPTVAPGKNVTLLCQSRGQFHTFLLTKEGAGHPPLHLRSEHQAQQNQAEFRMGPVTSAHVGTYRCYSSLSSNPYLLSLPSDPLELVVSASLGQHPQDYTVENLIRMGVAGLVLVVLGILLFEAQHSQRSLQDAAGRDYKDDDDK
T4 sequence (P59901 other isoform, or with tags, fused parts or gaps): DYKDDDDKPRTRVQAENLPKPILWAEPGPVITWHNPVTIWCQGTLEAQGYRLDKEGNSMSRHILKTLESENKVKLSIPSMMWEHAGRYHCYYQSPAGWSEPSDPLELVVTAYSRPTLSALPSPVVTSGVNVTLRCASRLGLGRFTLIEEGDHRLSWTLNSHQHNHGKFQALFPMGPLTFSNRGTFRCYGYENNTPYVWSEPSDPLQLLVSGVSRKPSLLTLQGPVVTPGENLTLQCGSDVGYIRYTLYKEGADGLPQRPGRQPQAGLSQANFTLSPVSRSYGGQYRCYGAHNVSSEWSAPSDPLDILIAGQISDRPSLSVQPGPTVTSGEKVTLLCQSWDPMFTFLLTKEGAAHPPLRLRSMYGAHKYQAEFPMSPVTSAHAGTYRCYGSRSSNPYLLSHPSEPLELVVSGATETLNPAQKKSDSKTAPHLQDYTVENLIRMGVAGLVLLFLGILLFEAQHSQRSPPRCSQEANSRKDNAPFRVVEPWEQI

B1: anti-ILT7 antibody #17 (mouse anti-human ILT7 monoclonal antibody produced by hybridoma #17, FERM BP-10705) (antibody, V domains shown)
VH: QVQLKQSGAELVRPGASVKLSCKTSGYIFTSYWIHWVKQRSGQGLEWIARIYPGTGSTYYNEKFKGKATLTADKSSSTAYMQLSSLKSEDSAVYFCARYPTYDWYFDVWGAGTTVTVSS
VL: DIVLTQSPATLSVTPGDRVSLSCRASQSISNYLHWYQQKSHESPRLLIKYASQSISGIPSRFSGSGSGTDFTLSINSVETEDFGMYFCQQSNSWPLTFGAGTKLELK
notes: Mouse hybridoma antibody as tested; also called ILT7#17
[1]
  binding result: no binding
[2]
  binding result: no binding
[3]
  binding result: no binding
[4]
  APC fluorescence intensity ratio (%), 37 °C against 4 °C (internalization on ILT7-CHO cells): 95.4%
  FITC fluorescence intensity ratio (%), 37 °C against 4 °C (internalization on ILT7-CHO cells): 44.5%
[5]
  binding result: binds

B2: anti-ILT7 antibody #11 (mouse anti-human ILT7 monoclonal antibody produced by hybridoma #11, FERM BP-10704) (antibody, V domains shown)
VH: DVQLQESGPGLVKPSQSLSLTCTVTGYSITSDYAWNWIRQFPGNKLEWMGYISYSGSTSYNPSLKSRISITRDTSKNQFFLQLNSVTTEDTATYYCARSPPYYAMDYWGQGTSVTVSS
VL: DIVMTQSHKFMSTSVGDRVSITCKASQDVGTAVAWYQQKPGQSPKLLIYWASTRHTGVPDRFTGSGSGTDFTLTISNVQSEDLADYFCQQYSSYPLTFGAGTKLELK
notes: Mouse hybridoma antibody as tested; also called ILT7#11; anti-ILT7 antibody 411
[6]
  binding result: binds
[7]
  binding result: binds
[1]
  binding result: no binding
[2]
  binding result: no binding
[3]
  binding result: no binding
[8]
  binding result: binds

B3: mouse anti-human ILT7 antibody #37 (monoclonal antibody produced by hybridoma #37) (antibody, V domains shown)
VH: B2 VH with S99A, P100L, Y102L, Y103P, A104W, M105F, D106A, S113L, S118A
VL: B2 VL with L96Y, A100G, L106I
notes: Mouse hybridoma antibody; also called ILT7#37; ILT7437
[9]
  binding result: binds
[4]
  APC fluorescence intensity ratio (%), 37 °C against 4 °C (internalization on ILT7-CHO cells): 98.2%
  FITC fluorescence intensity ratio (%), 37 °C against 4 °C (internalization on ILT7-CHO cells): 55.9%
